Article PMC8464079
Numbering of substitutions follows the chain as printed.

Experiments:
Assay in all cases: fluorescence polarization
MUT-#11 (K513A) = target: T1, MUT-#11 (K513A) (Caenorhabditis elegans, UniProt Q09487 172-535, K513A)
T1 sequence: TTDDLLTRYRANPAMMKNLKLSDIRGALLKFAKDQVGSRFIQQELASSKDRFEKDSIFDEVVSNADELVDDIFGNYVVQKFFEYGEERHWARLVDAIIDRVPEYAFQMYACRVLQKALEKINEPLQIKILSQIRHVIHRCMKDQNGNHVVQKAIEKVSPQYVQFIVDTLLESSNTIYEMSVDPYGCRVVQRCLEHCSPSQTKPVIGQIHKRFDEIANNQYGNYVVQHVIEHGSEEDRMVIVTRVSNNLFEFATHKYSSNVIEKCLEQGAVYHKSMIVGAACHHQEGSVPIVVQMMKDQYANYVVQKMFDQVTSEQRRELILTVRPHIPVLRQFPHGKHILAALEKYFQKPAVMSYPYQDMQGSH

MUT-#12 (K513E) = target: T2, MUT-#12 (K513E) (Caenorhabditis elegans, UniProt Q09487 172-535, K513E)
T2 sequence: T1 sequence with A342E

MUT-4G = target: T3, MUT-4G (Caenorhabditis elegans, UniProt Q09487 172-535, N318S;H319N;Q322E)
T3 sequence: T1 sequence with N147S, H148N, Q151E, A342K

MUT-#10 (Q476E) = target: T4, MUT-#10 (Q476E) (Caenorhabditis elegans, UniProt Q09487 172-535, Q476E)
T4 sequence: T1 sequence with Q305E, A342K

MUT-#9 (Q476A) = target: T5, MUT-#9 (Q476A) (Caenorhabditis elegans, UniProt Q09487 172-535, Q476A)
T5 sequence: T1 sequence with Q305A, A342K

MUT-4N = target: T6, MUT-4N (Caenorhabditis elegans, UniProt Q09487 172-535, N318A;H319A;Q322A)
T6 sequence: T1 sequence with N147A, H148A, Q151A, A342K

B1: PBE-5A FAM (ssRNA)
RNA: UGUAAAUA
Kd (MUT-#11 (K513A)): 133 ± 29.8 nM
Kd (MUT-#12 (K513E)): 209 ± 29.1 nM
Kd (MUT-4G): 239 ± 48 nM
Kd (MUT-#10 (Q476E)): 519 ± 63.1 nM
Kd (MUT-#9 (Q476A)): 63.5 ± 11.1 nM
Kd (MUT-4N): 161 ± 22 nM
